Test results reported in doi:10.1101/2024.10.04.616518.

What was measured:
[1] = target: ixochymostatin (Ixodes scapularis); assay: SPR
[2] = target: bovine pancreatic chymotrypsin (bovine); assay: enzyme inhibition kinetics

Sequence of ixochymostatin (Ixodes scapularis) (B7PCV3 21-91): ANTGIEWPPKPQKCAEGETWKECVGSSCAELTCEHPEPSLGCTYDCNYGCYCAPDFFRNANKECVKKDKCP
Sequence of ixochymostatin (natural protein) (B7PCV3 21-91): as above

Row | Substance | Kd [1] [nM] | koff [1] [s⁻¹] | kon [1] [M⁻¹ s⁻¹] | Ki [2] [nM] | Ki^app (Morrison equation) [2] [nM] | apparent Ki (Ki^app), from IC50 against protease concentration [2] [nM]
1 | bovine pancreatic chymotrypsin (enzyme) | 0.076 | 1.2e-05 | 160000 |  |  | 
2 | ixochymostatin (natural protein) |  |  |  | 0.14 | 0.81 | 16
